Where no end group is shown, it is not given here.
T1: 15N-labeled PHear (NECAP 1 PHear domain, GST cleaved) (mouse, UniProt Q9CR95 1-133)
T1 chain: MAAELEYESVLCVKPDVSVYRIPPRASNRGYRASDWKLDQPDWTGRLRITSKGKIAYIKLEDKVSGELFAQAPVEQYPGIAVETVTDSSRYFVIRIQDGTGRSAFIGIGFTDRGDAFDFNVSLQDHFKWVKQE

T2: 15N-labeled PHear (NECAP 1 PHear domain, GST cleaved) (mouse, UniProt Q9CR95 1-133)
T2 construct: NECAP 1, PHear domain, residues 1-133; Uniformly 15N-labelled for NMR; source: E. coli BL21, purified (GST fusion cleaved with thrombin, S75 gel filtration)
T2 sequence (looked up): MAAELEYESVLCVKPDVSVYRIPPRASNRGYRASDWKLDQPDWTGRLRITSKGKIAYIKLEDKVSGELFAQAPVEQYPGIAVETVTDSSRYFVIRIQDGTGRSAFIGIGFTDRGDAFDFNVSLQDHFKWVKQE

B1: β2-linker peptide (Ac-SQGDLLGDLLNLDLPPVN) (peptide)
peptide: Ac-SQGDLLGDLLNLDLPPVN
notes: peptide from the linker of β2-adaptin; the printed peptide has no G there; also called unlabeled β2-linker; source: synthetic peptide (Sheldon Biotechnology Center, McGill University), HPLC purified
B2: AP180 FxDxF-motif peptide (Ac-VDIFGDAFAAS) (peptide)
peptide: Ac-VDIFGDAFAAS
notes: peptide derived from AP180; also called AP-180 peptide; FxDxF-motif peptide derived from AP180; source: synthetic peptide (Sheldon Biotechnology Center, McGill University), HPLC purified

How the values were obtained:
[1] = molecular target: T1, 15N-labeled PHear (NECAP 1 PHear …); assay: NMR; I106 peak
[2] = molecular target: T1, 15N-labeled PHear (NECAP 1 PHear …); assay: NMR; L47 peak
[3] = molecular target: T2, 15N-labeled PHear (NECAP 1 PHear …); assay: NMR titration; 1H-15N HSQC of 15N-labeled PHear (0.15 mM) titrated with unlabeled peptide, 30°C, 25 mM sodium phosphate pH 7.2, 75 mM NaCl, 0.5 mM EDTA, 3 mM DTT; settings: both partners purified

Binder	Kd [1]	Kd [2]	Kd [3]	binding result [3]
B1	420 µM	540 µM	480 µM	–
B2	–	–	–	binds

Reference: publication PMC3794858, “NECAP 1 Regulates AP-2 Interactions to Control Vesicle Size, Number, and Cargo During Clathrin-Mediated Endocytosis” (PLoS Biology, 2013)
